This is an account of results in PMC4555475.

In general, stoichiometry N refers to the number of molecules, sites or subunits per partner or assembly.

Assay [1] concerns the target voltage-gated Ca^2+ channel complex. Description: FRET or BRET. Background: In BRET a luciferase serves as donor, and the signal depends on an acceptor being close.
Assay [2] deals with KpBest, bacterial homolog of human bestrophin 1 (not stated (bacterial)).

For the substance “calmodulin (from UniProt P0DP23 1-149) (natural protein)”, the stoichiometry N in assay [1] is 1.

“KpBest, bacterial homolog of human bestrophin 1 (natural protein)” showed a stoichiometry N in assay [2] of 5.
